This is an account of results in publication PMC6513101, “Experimentally guided computational antibody affinity maturation with de novo docking, modelling and rational design” (PLoS Computational Biology, 2019).

The chains are these.
B1: AB1 alanine variant 19 (H:Y26A) (antibody, V domains shown)
VH: QVQLQQSGAELAKPGSSVKISCKAAGSSFTTNSIHWIKQTTGQALEWTGYIAPGSGGARYNEKFKGKATLTVDKSSGTAYMQLSSLTPVDTAVYYCALNIGTNPFTYWGQGTLVTVSS
VL: DIVMTQGALPNPVPSGESVSITCRSSKSLLYSDGKTYLNWYLQRPGQSPQLLIYWMSTRASGVSDRFSGSGSGTDFTLKISGVEAEDVGVYYCQQGLEFPRTFGSGTKLEIK
notes: IMGT numbering; IgG1, as m1; also called control; source: HEK293FT, transiently transfected, purified (Protein A)
B2: AB1 alanine variant 13 (H:T110A) (antibody, V domains shown)
VH: B1 VH with A25Y, T102A
VL: B1 VL
notes: IMGT numbering; IgG1, as m1; source: HEK293FT, transiently transfected, purified (Protein A)
B3: AB1 alanine variant 15 (L:D34A) (antibody, V domains shown)
VH: B1 VH with A25Y
VL: B1 VL with D33A
notes: as for B2
B4: AB1 alanine variant 12 (H:N107A) (antibody, V domains shown)
VH: B1 VH with A25Y, N99A
VL: B1 VL
notes: as for B2
B5: AB1 alanine variant 5 (H:Y55A, H:R66A, L:Y31A) (antibody, V domains shown)
VH: B1 VH with A25Y, Y50A, R59A
VL: B1 VL with Y31A
notes: as for B2
B6: AB1 affinity maturation variant 2 (H:S29D) (antibody, V domains shown)
VH: B1 VH with A25Y, S28D
VL: B1 VL
notes: as for B2
B7: AB1 affinity maturation variant 10 (H:T110F) (antibody, V domains shown)
VH: B1 VH with A25Y, T102F
VL: B1 VL
notes: as for B2
B8: AB1 affinity maturation variant 14 (L:S32D) (antibody, V domains shown)
VH: B1 VH with A25Y
VL: B1 VL with S32D
notes: as for B2
B9: AB1 affinity maturation variant 20 (L:Q106Y) (antibody, V domains shown)
VH: B1 VH with A25Y
VL: B1 VL with Q95Y
notes: IMGT numbering; IgG1, as m1; also called neutral control mutation; source: HEK293FT, transiently transfected, purified (Protein A)
B10: AB1 alanine variant 4 (H:N113A) (antibody, V domains shown)
VH: B1 VH with A25Y, N103A
VL: B1 VL
notes: as for B2
B11: AB1 affinity maturation variant 18 (L:Y38R) (antibody, V domains shown)
VH: B1 VH with A25Y
VL: B1 VL with Y37R
notes: as for B2
B12: AB1 affinity maturation variant 19 (L:F114R) (antibody, V domains shown)
VH: B1 VH with A25Y
VL: B1 VL with F99R
notes: as for B2
B13: AB1 affinity maturation variant 4 (H:N37T) (antibody, V domains shown)
VH: B1 VH with A25Y, N32T
VL: B1 VL
notes: as for B2
B14: AB1 affinity maturation variant 3 (H:T36Q) (antibody, V domains shown)
VH: B1 VH with A25Y, T31Q
VL: B1 VL
notes: as for B2
B15: AB1 alanine variant 16 (L:K36A) (antibody, V domains shown)
VH: B1 VH with A25Y
VL: B1 VL with K35A
notes: as for B2
B16: AB1 alanine variant 9 (H:T35A, H:N107A, L:R116A) (antibody, V domains shown)
VH: B1 VH with A25Y, T30A, N99A
VL: B1 VL with R101A
notes: as for B2
B17: AB1 affinity maturation variant 9 (H:T110W) (antibody, V domains shown)
VH: B1 VH with A25Y, T102W
VL: B1 VL
notes: as for B2
B18: AB1 alanine variant 3 (H:R66A) (antibody, V domains shown)
VH: B1 VH with A25Y, R59A
VL: B1 VL
notes: as for B2
B19: AB1 alanine variant 6 (H:S29A, L:Y31A, L:Y38A) (antibody, V domains shown)
VH: B1 VH with A25Y, S28A
VL: B1 VL with Y31A, Y37A
notes: as for B2
B20: AB1 affinity maturation variant 11 (H:N113R) (antibody, V domains shown)
VH: B1 VH with A25Y, N103R
VL: B1 VL
notes: as for B2
B21: AB1 affinity maturation variant 8 (H:I108R) (antibody, V domains shown)
VH: B1 VH with A25Y, I100R
VL: B1 VL
notes: as for B2
B22: AB1 affinity maturation variant 17 (L:K36R) (antibody, V domains shown)
VH: B1 VH with A25Y
VL: B1 VL with K35R
notes: as for B2
B23: AB1 alanine variant 23 (H:T35A/N107A/L:Y31A) (antibody, V domains shown)
VH: B1 VH with A25Y, T30A, N99A
VL: B1 VL with Y31A
notes: IMGT numbering; IgG1, as m1; intermediate construct; source: HEK293FT, transiently transfected, purified (Protein A)
B24: AB1 alanine variant 2 (H:T35A) (antibody, V domains shown)
VH: B1 VH with A25Y, T30A
VL: B1 VL
notes: as for B2
B25: AB1 alanine variant 11 (H:Y55A) (antibody, V domains shown)
VH: B1 VH with A25Y, Y50A
VL: B1 VL
notes: as for B2
B26: AB1 alanine variant 14 (L:Y31A) (antibody, V domains shown)
VH: B1 VH with A25Y
VL: B1 VL with Y31A
notes: as for B2
B27: AB1 alanine variant 20 (L:S26A) (antibody, V domains shown)
VH: B1 VH with A25Y
VL: B1 VL with S26A
notes: as for B1
B28: AB1 affinity maturation variant 12 (H:F115H) (antibody, V domains shown)
VH: B1 VH with A25Y, F105H
VL: B1 VL
notes: as for B2
B29: AB1 alanine variant 21 (L:Y31A/Y38A) (antibody, V domains shown)
VH: B1 VH with A25Y
VL: B1 VL with Y31A, Y37A
notes: as for B23
B30: AB1 affinity maturation variant 6 (H:G64T) (antibody, V domains shown)
VH: B1 VH with A25Y, G57T
VL: B1 VL
notes: as for B2
B31: AB1 alanine variant 18 (L:R116A) (antibody, V domains shown)
VH: B1 VH with A25Y
VL: B1 VL with R101A
notes: as for B2
B32: AB1 alanine variant 1 (H:S29A) (antibody, V domains shown)
VH: B1 VH with A25Y, S28A
VL: B1 VL
notes: as for B2
B33: AB1 affinity maturation variant 15 (L:D34Q) (antibody, V domains shown)
VH: B1 VH with A25Y
VL: B1 VL with D33Q
notes: as for B2
B34: AB1 affinity maturation variant 13 (H:T116R) (antibody, V domains shown)
VH: B1 VH with A25Y, T106R
VL: B1 VL
notes: as for B2
B35: AB1 alanine variant 10 (H:S28A) (antibody, V domains shown)
VH: B1 VH with A25Y, S27A
VL: B1 VL
notes: as for B2
B36: AB1 alanine variant 22 (L:Y31A/D34A) (antibody, V domains shown)
VH: B1 VH with A25Y
VL: B1 VL with Y31A, D33A
notes: as for B23
B37: AB1 affinity maturation variant 5 (H:G59Y) (antibody, V domains shown)
VH: B1 VH with A25Y, G54Y
VL: B1 VL
notes: as for B2
B38: AB1 alanine variant 17 (L:Y38A) (antibody, V domains shown)
VH: B1 VH with A25Y
VL: B1 VL with Y37A
notes: as for B2
B39: AB1 alanine variant 8 (H:T110A, L:Y31A, L:D34A) (antibody, V domains shown)
VH: B1 VH with A25Y, T102A
VL: B1 VL with Y31A, D33A
notes: as for B2
B40: AB1 affinity maturation variant 7 (H:A65Y) (antibody, V domains shown)
VH: B1 VH with A25Y, A58Y
VL: B1 VL
notes: as for B2

Substitutions are numbered along the chain they refer to. In names and notes the source's numbering stands.

The target in this assay is T1, biotinylated murine CCL20 (Mus musculus, UniProt O89093, biotin).
T1 construct: CCL20, mouse; recombinant; m2 with biotin; also called biotinylated muCCL20; muCCL20 antigen; source: in-house, standard mammalian cell expression; biotinylated
The assay can be described thus: ELISA; capture ELISA: plate-coated anti-mouse Fc antibody (1 ug/mL) captures the antibody variant (5 ug/mL); biotinylated muCCL20 titrated from 0 to 600 nM, 1 h. Particulars: both partners purified. A general note: In an ELISA, binding on a coated surface is turned into a signal by an enzyme label.
On to B1, for which the binding result is given as “binds”.
Still for that read-out and setting: the result for B2 reads “binds”; that for B3, “no binding (tested: 600 nM)”.
Take B4: the binding result is “no binding (tested: 600 nM)”.
Still for that read-out and setting: the entry for B5 is “binds”.
Same read-out and setting: the entry for B6 is “binds”; for B7 it is “binds”.
Regarding B8, the binding result is “binds”.
Still for that read-out and setting: the entry for B9 is “binds”; for B10 it is “no binding (tested: 600 nM)”; for B11 it is “binds”.
On the same count and under the same terms, the entry for B12 is “binds”; for B13 it is “binds”; for B14 it is “binds”.
Consider B15, for which the “fold reduction of binding affinity against WT AB1” value is 3 fold.
With B16, the binding result is listed as “no binding (tested: 600 nM)”.
On the same count and under the same terms, the result for B17 reads “binds”.
The same measure, in the same setting: the result for B18 reads “binds”; that for B19, “no binding (tested: 600 nM)”; that for B20, “binds”.
For the molecule B21, the binding result is recorded as “binds”.
The same measure, in the same setting: the result for B22 reads “binds”; that for B23, “no binding (tested: 600 nM)”; that for B24, “binds”.
As to B25, the binding result is reported as “no binding (tested: 600 nM)”.
Same read-out and setting: the entry for B26 is “binds”.
The same measure, in the same setting: the result for B27 reads “binds”.
Same read-out and setting: the entry for B28 is “binds”; for B29 it is “no binding (tested: 600 nM)”; for B30 it is “binds”.
As for B31, the binding result is given as “binds”.
Same read-out and setting: the result for B32 reads “binds”.
Same read-out and setting: the result for B33 reads “binds”; that for B34, “binds”.
Same read-out and setting: the result for B35 reads “binds”; that for B36, “no binding (tested: 600 nM)”; that for B37, “binds”.
In the case of B38, the binding result is reported as “no binding (tested: 600 nM)”.
Still for that read-out and setting: the entry for B39 is “no binding (tested: 600 nM)”.
The same measure, in the same setting: the entry for B40 is “binds”.
